Tests used:
[1] = molecular target: acylated ghrelin (AG) (mouse) (UniProt Q9EQX0); assay: cell-based or functional assay
[2] = molecular target: unacylated ghrelin (UAG) (mouse) (UniProt Q9EQX0); assay: cell-based or functional assay

- levels of AG in circulation of mice expressing GHSR/Fc (plasma enzyme-linked immunoassay) [1]: 1.41 pg/mL
- levels of total ghrelin (primarily UAG) in circulation of mice expressing GHSR/Fc (plasma radioimmunoassay) [2]: 141 pg/mL
Substance: GHSR/Fc (Nt-EC1-EC2 of mouse GHS-R1a fused with a mouse IgG constant region (Fc)) (Fc fusion)

— US20160130322A1
